# Patent US20130172235A1, “ORAL TREATMENT OF INFLAMMATORY BOWEL DISEASE” (Novozymes A/S, priority 2011, published 2013)
# Ends that are not written are not given here.
# System: Dextran Sodium Sulphate (DSS)-induced colitis
# Test: 10-Day Dextran Sodium Sulphate (DSS)-induced colitis model in the mouse
# Assay type: in vivo, Male C57BL/6 mice
# Design: key to Disease Activity Index (DAI): clinical DAI score, daily maximum 12
# Conditions: for Disease Activity Index (DAI): mean ± SEM, n=10; for additional DAI score without the change in body weight (only stool consistency and rectal bleeding): oral, 10-day treatment; for additional DAI score without the change in body weight (only stool consistency and rectal bleeding) / inhibition of the disease activity index (DAI): vs. vehicle
# Description: 10-Day Dextran Sodium Sulphate (DSS)-Induced Colitis Model in the Mouse
# The aim of the following study was to determine the anti-inflammatory activity of human beta defensin 2 in an acute (10-days) model of inflammatory bowel disease (colitis) induced by oral dextran sodium sulphate (DSS) administration in the mouse.
# Study design: animals were divided into 5 experimental groups. Each group consisted of 10 males: Group A: Treated with Control vehicle (PBS) p.o. twice daily. Group B: Treated with methylprednisolone (1 mg/kg p.o. twice daily). Group C: Treated with hBD2 (0.05 mg/kg p.o. twice daily). Group D: Treated with hBD2 (0.5 mg/kg p.o. […]). Group E: Treated with hBD2 (5 mg/kg p.o. […]). Animal allocation to all experimental groups was done in a randomized manner. A maximum of 5 mice were housed in each cage (as per Directive 86/609/EEC). All animals were weighed on their arrival at the laboratory and prior to the administration of the test items.
# The control vehicle and hBD2 were administered orally with the use of a sterile cannula in a dosing volume of 10 ml/kg body weith. The animals of all groups recieved 2 doses daily (at 9.00 h and 17.00 h) of the corresponding test item (test, reference or vehicle) for 10 consecutive days (experimental days 1-10).
# Colitis was induced in mice by supplementing their drinking water with DSS 2% for 7 days. On Day 1 all mice were weighed and marked according to their experimental groups. The drinking bottle of each cage was filled with the DSS solution, making sure all bottle lids were mounted properly and that none were congested. On Day 3 any remaining solution in the bottles was emptied and refilled with fresh DSS solution. This procedure was repeated again on Day 5. On Day 8 any remaining solution was discarded and replaced with autoclaved water. Animals were sacrificed 2 days later on Day 10.
# Daily clinical assessment of DSS-treated animals was carried out, with the calculation of a validated clinical Disease Activity Index (DAI) ranging from 0 to 4 according to the following parameters: stool consistency, presence or absence of rectal bleeding and weight loss:
# Bodyweight loss was calculated as the percent difference between the original bodyweight (Day 1) and the actual bodyweight on each experimental day (2-10). The appearance of diarrhoea is defined as mucus/faecal material adherent to anal fur. Rectal bleeding is defined as diarrhoea containing visible blood/mucus or gross rectal bleeding. The maximum score of the DAI each day is 12.
# On day 10, two hours after the last administration of control vehicle, hBD2 or prednisolone, the animals were killed by an overdose of anaesthetic. Their colons were removed and their length and weight measured after exclusion of the caecum. Two sections (proximal and distal) of colon were taken from each animal and preserved in neutral buffered formalin for subsequent histological analysis (haematoxylin and eosin staining) according to the following scoring system:
# Description Score: No changes observed (0). Minimal scattered mucosal inflammatory cell infiltrates, with or without minimal epithelial hyperplasia (1). Mild scattered to diffuse inflammatory cell infiltrates, sometimes extending into the submucosa and associated with erosions, with minimal to mild epithelial hyperplasia and minimal to mild mucin depletion from goblet cells (2). Mild to moderate inflammatory cell infiltrates that were sometimes transmural, often associated with ulceration, with moderate epithelial hyperplasia and mucin depletion (3). Marked inflammatory cell infiltrates that were often transmural and associated with ulceration, with marked epithelial hyperplasia and mucin depletion (4). Marked transmural inflammation with severe ulceration and loss of intestinal glands (5). […]
# [1] = prednisolone 1 mg/kg p.o. twice daily (Group B), day 10
compound,measurement,setting,value
"C[C@H]1C[C@@H]2[C@H]([C@@H](O)C[C@@]3(C)[C@H]2CC[C@]3(O)C(=O)COC(=O)CCC(=O)O)[C@@]2(C)C=CC(=O)C=C12 [Methylprednisolone 21-hemisuccinate, reference compound]",Disease Activity Index (DAI),"Prednisolone 1 mg/kg p.o. twice daily, Day 6 as printed, P < 0.01 vs. vehicle",7 ± 0.33
same,additional DAI score without the change in body weight (only stool consistency and rectal bleeding),,very significant anti-inflammatory activity
same,histological injury induced by DSS in the distal colon,[1],significantly reduced
same,histological injury induced by DSS in the proximal colon,[1],significantly reduced
same,body weight,"prednisolone 1 mg/kg p.o. twice daily (group B), from day 2 until the end of the study",significant decrease
same,inhibition of the disease activity index (DAI),reference item prednisolone 1 mg/kg p.o. twice daily,significant inhibition
"Human beta defensin 2 (GIGDPVTCLKSGAICHPVFCPRRYKQIGTCGLPGTKCCKKP; ends and bridges not checked; cysteine pairing not given here; listed as Homo sapiens) [hBD2, human beta defensin 2 (hBD2]",Disease Activity Index (DAI),"hBD2 0.05 mg/kg p.o., Day 6, max score 12, P < 0.01 vs. vehicle",1.2 ± 0.59
same,Disease Activity Index (DAI),"hBD2 0.05 mg/kg p.o., Day 7, P < 0.05 vs. vehicle",1.9 ± 0.66
same,Disease Activity Index (DAI),"hBD2 0.05 mg/kg p.o., Day 8, P < 0.001 vs. vehicle",4.5 ± 0.86
same,Disease Activity Index (DAI),"hBD2 0.05 mg/kg p.o., Day 9, P < 0.001 vs. vehicle",5.6 ± 0.54
same,Disease Activity Index (DAI),"hBD2 0.05 mg/kg p.o., Day 10, P < 0.05 vs. vehicle",8 ± 0.73
same,Disease Activity Index (DAI),"hBD2 0.5 mg/kg p.o., Day 6, P < 0.05 vs. vehicle",1.7 ± 0.67
same,Disease Activity Index (DAI),"hBD2 0.5 mg/kg p.o., Day 9, P < 0.05 vs. vehicle",7.1 ± 0.61
same,Disease Activity Index (DAI),"hBD2 0.5 mg/kg p.o., Day 10, P < 0.01 vs. vehicle",7.3 ± 0.7
same,Disease Activity Index (DAI),"hBD2 5 mg/kg p.o., Day 3, P < 0.05 vs. vehicle",0.5 ± 0.27
same,Disease Activity Index (DAI),"hBD2 5 mg/kg p.o., Day 4, P < 0.05 vs. vehicle",0.6 ± 0.27
same,Disease Activity Index (DAI),"hBD2 5 mg/kg p.o., Day 5, P < 0.05 vs. vehicle",1.8 ± 0.76
same,Disease Activity Index (DAI),"hBD2 5 mg/kg p.o., Day 6, P < 0.05 vs. vehicle",1.4 ± 0.6
same,Disease Activity Index (DAI),"hBD2 5 mg/kg p.o., Day 7, P < 0.05 vs. vehicle",2.1 ± 0.96
same,Disease Activity Index (DAI),"hBD2 5 mg/kg p.o., Day 8, P < 0.01 vs. vehicle",5.4 ± 0.87
same,Disease Activity Index (DAI),"hBD2 5 mg/kg p.o., Day 9, P < 0.001 vs. vehicle",5.2 ± 0.76
same,Disease Activity Index (DAI),"hBD2 5 mg/kg p.o., Day 10, P < 0.001 vs. vehicle",5.6 ± 0.48
same,inhibition of the disease activity index (DAI),"hBD2 at three dose levels (0.05, 0.5, 5 mg/kg) via the oral route",significant inhibition
same,histological damage in the proximal colon,"hBD2 twice daily, at 3 dose levels, p.o., day 10",significant reduction
same,histological damage in the distal colon,"hBD2 twice daily, at the intermediate and high dose levels, p.o., day 10",significant reduction
same,body weight compared to the control group,"high dose of the test item (5 mg/kg p.o.), day 10, P<0.05",significant increase
same,additional DAI score without the change in body weight (only stool consistency and rectal bleeding),,very significant anti-inflammatory activity
